Assay [1] addresses T1, Anti-CD28 scFv (VH-linker 1-VL) (biotinylated (site not stated)).
T1 construct: biotinylated and captured on neutravidin coated plates in the phage ELISA
The assay is described as follows: phage binding ELISA on captured biotinylated anti-CD28 scFv.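 Further: crude clonal phage supernatants applied to the wells, bound phage read out with an HRP-conjugated anti-M13 antibody.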

Assay [2] addresses T1, Anti-CD28 scFv (VH-linker 1-VL). The assay can be described thus: phage binding ELISA on captured anti-CD28 scFv, wells pre-incubated with soluble CD28 (competitor).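 Further: crude clonal phage supernatants added without washing, bound phage detected by HRP-conjugated anti-M13 antibody, control wells held blocking buffer alone instead of CD28.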
Experimental: Clonal phage were harvested as crude supernatants and screened via standard enzyme linked immunosorbent assays (ELISAs). […] Prior to the addition of clonal phage, wells were incubated with blocking buffer and CD28 soluble protein or blocking buffer alone. Without washing or aspirating, clonal phage supernatants were then added to the wells and incubated for a short time. Wells were then washed followed by detection of bound phage using a horse radish peroxidase conjugated anti-M13 antibody.

T1 sequence (scFv, as listed by the source): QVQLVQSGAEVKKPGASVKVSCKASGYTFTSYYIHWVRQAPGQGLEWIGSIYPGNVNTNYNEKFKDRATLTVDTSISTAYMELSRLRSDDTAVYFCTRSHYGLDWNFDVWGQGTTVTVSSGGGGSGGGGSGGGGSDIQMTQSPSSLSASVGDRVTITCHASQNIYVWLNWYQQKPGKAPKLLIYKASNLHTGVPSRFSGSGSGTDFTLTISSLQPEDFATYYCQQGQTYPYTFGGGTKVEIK

B1: Phage-349 (peptide)
peptide: LDWCPRHLWALCFN
In the case of B1, the “CD28 scFv signal” value in assay [1] came out at 1.78. The “CD28 scFv signal in presence of CD28” value in assay [2] is 0.24.

B2: Phage-348 (peptide)
peptide: MAWCPWYLWDECFN
Turning to B2, the “CD28 scFv signal” value in assay [1] came to 1.81. Moreover, in assay [2], the “CD28 scFv signal in presence of CD28” value came to 0.267.

B3: Phage-406 (peptide)
peptide: MNWCPIDMWTECFN
B3: the “CD28 scFv signal” value in assay [1] came out at 1.4. Also, in assay [2], the “CD28 scFv signal in presence of CD28” value amounted to 0.175.

B4: Phage-383 (peptide)
peptide: LAGCQRDLATVCVI
As for B4, the “CD28 scFv signal” value in assay [1] is 0.229. In addition, in assay [2], the “CD28 scFv signal in presence of CD28” value amounted to 0.116.

B5: Phage-367 (peptide)
peptide: MDWCPSFLWYECFN
As to B5, the “CD28 scFv signal” value in assay [1] stood at 1.13. Further, the “CD28 scFv signal in presence of CD28” value in assay [2] came to 0.104.

B6: Phage-378 (peptide)
peptide: MHWCPLHLWNECFA
For the molecule B6, in assay [1], the “CD28 scFv signal” value amounted to 0.575. In addition, the “CD28 scFv signal in presence of CD28” value in assay [2] is 0.083.

B7: Phage-356 (peptide)
peptide: MDWCPMYLWDECFF
In the case of B7, the “CD28 scFv signal” value in assay [1] was 1.65. Also, the “CD28 scFv signal in presence of CD28” value in assay [2] worked out at 0.178.

B8: Phage-391 (peptide)
peptide: MDWCPFDMWADCFF
Regarding B8, the “CD28 scFv signal” value in assay [1] is 2.53. For the same molecule, the “CD28 scFv signal in presence of CD28” value in assay [2] turned out to be 0.215.

B9: Phage-377 (peptide)
peptide: MDWCPFDLWLECFN
Regarding B9, the “CD28 scFv signal” value in assay [1] worked out at 0.65. The “CD28 scFv signal in presence of CD28” value in assay [2] is 0.12.

B10: Phage-347 (peptide)
peptide: MDWCPLFLWDQCFN
As for B10, the “CD28 scFv signal” value in assay [1] was 1.82. In assay [2], the “CD28 scFv signal in presence of CD28” value is 0.264.

B11: Phage-380 (peptide)
peptide: MDYCPSYLWHECFA
For the molecule B11, in assay [1], the “CD28 scFv signal” value was 0.47. Also, in assay [2], the “CD28 scFv signal in presence of CD28” value came to 0.09.

B12: Phage-395 (peptide)
peptide: MDWCPKDMWAECFN
Regarding B12, the “CD28 scFv signal” value in assay [1] worked out at 2.11. The “CD28 scFv signal in presence of CD28” value in assay [2] was 0.457.

B13: Phage-401 (peptide)
peptide: MDWCPLDMWVLCFA
In the case of B13, the “CD28 scFv signal” value in assay [1] turned out to be 1.84. In assay [2], the “CD28 scFv signal in presence of CD28” value came out at 0.169.

B14: Phage-353 (peptide)
peptide: IDWCPLHLWHECYH
With B14, the “CD28 scFv signal” value in assay [1] stood at 1.69. Further, the “CD28 scFv signal in presence of CD28” value in assay [2] was found to be 0.182.

B15: Phage-398 (peptide)
peptide: MDWCPRNMWNECFF
Turning to B15, the “CD28 scFv signal” value in assay [1] was determined as 2.1. The “CD28 scFv signal in presence of CD28” value in assay [2] was 0.43.

B16: Phage-368 (peptide)
peptide: MSWCPPYLWTVCYN
With B16, the “CD28 scFv signal” value in assay [1] was determined as 1.1. Moreover, in assay [2], the “CD28 scFv signal in presence of CD28” value came out at 0.326.

B17: Phage-386 (peptide)
peptide: NHWCPTTLWNRCVA
With B17, the “CD28 scFv signal” value in assay [1] was 0.078. Also, the “CD28 scFv signal in presence of CD28” value in assay [2] was found to be 0.093.

B18: Phage-400 (peptide)
peptide: MHWCPTYMWSECFA
B18: the “CD28 scFv signal” value in assay [1] was 1.84. Moreover, the “CD28 scFv signal in presence of CD28” value in assay [2] is 0.161.

B19: Phage-402 (peptide)
peptide: MDWCPRHMWHECFH
For B19, in assay [1], the “CD28 scFv signal” value was found to be 1.81. In addition, the “CD28 scFv signal in presence of CD28” value in assay [2] was determined as 0.171.

B20: Phage-397 (peptide)
peptide: MDWCPRAMWDYCFY
As to B20, in assay [1], the “CD28 scFv signal” value stood at 2.11. The “CD28 scFv signal in presence of CD28” value in assay [2] is 0.339.

B21: Phage-370 (peptide)
peptide: MTWCPAYLWHECFN
On to B21, for which the “CD28 scFv signal” value in assay [1] worked out at 0.985. In addition, the “CD28 scFv signal in presence of CD28” value in assay [2] is 0.139.

B22: Phage-362 (peptide)
peptide: MDWCPRILWHECFS
With B22, the “CD28 scFv signal” value in assay [1] turned out to be 1.39. The “CD28 scFv signal in presence of CD28” value in assay [2] is 0.174.

B23: Phage-393 (peptide)
peptide: MDWCPRDMWFECFN
Take B23: the “CD28 scFv signal” value in assay [1] stood at 2.42. Further, in assay [2], the “CD28 scFv signal in presence of CD28” value came to 0.778.

B24: Phage-372 (peptide)
peptide: MDWCPRYLWVDCFA
Take B24: the “CD28 scFv signal” value in assay [1] came to 0.917. Besides, the “CD28 scFv signal in presence of CD28” value in assay [2] stood at 0.218.

B25: Phage-373 (peptide)
peptide: MDWCPRILWSDCFN
As for B25, the “CD28 scFv signal” value in assay [1] is 0.847. Further, the “CD28 scFv signal in presence of CD28” value in assay [2] amounted to 0.113.

B26: Phage-382 (peptide)
peptide: ITWCPTSLWNRCLV
On to B26, for which, in assay [1], the “CD28 scFv signal” value is 0.242. Moreover, the “CD28 scFv signal in presence of CD28” value in assay [2] was found to be 0.089.

B27: Phage-385 (peptide)
peptide: ILRCQMNLQDECLN
As for B27, the “CD28 scFv signal” value in assay [1] is 0.083. For the same molecule, the “CD28 scFv signal in presence of CD28” value in assay [2] was found to be 0.077.

B28: Phage-384 (peptide)
peptide: IMWCPTSLWNRCVT
Turning to B28, the “CD28 scFv signal” value in assay [1] stood at 0.161. Further, the “CD28 scFv signal in presence of CD28” value in assay [2] is 0.129.

B29: Phage-376 (peptide)
peptide: MDWCPRHLWTYCFH
Consider B29, for which the “CD28 scFv signal” value in assay [1] was found to be 0.757. Besides, in assay [2], the “CD28 scFv signal in presence of CD28” value stood at 0.207.

B30: Phage-375 (peptide)
peptide: MNWCPRALWHECFL
For B30, the “CD28 scFv signal” value in assay [1] turned out to be 0.759. The “CD28 scFv signal in presence of CD28” value in assay [2] stood at 0.107.

B31: Phage-379 (peptide)
peptide: MDWCPRNLWAECFS
Take B31: in assay [1], the “CD28 scFv signal” value came out at 0.538. For the same molecule, the “CD28 scFv signal in presence of CD28” value in assay [2] came to 0.08.

B32: Phage-352 (peptide)
peptide: MDWCPIHLWYECFN
As to B32, the “CD28 scFv signal” value in assay [1] was determined as 1.73. In assay [2], the “CD28 scFv signal in presence of CD28” value turned out to be 0.203.

B33: Phage-381 (peptide)
peptide: MAWCPRILWHQCFN
Turning to B33, in assay [1], the “CD28 scFv signal” value is 0.322. For the same molecule, in assay [2], the “CD28 scFv signal in presence of CD28” value came to 0.129.

B34: Phage-404 (peptide)
peptide: MDWCPRDMWTSCFN
For B34, in assay [1], the “CD28 scFv signal” value was 1.41. Moreover, the “CD28 scFv signal in presence of CD28” value in assay [2] stood at 0.179.

B35: Phage-364 (peptide)
peptide: MDWCPRSLWAQCFY
Turning to B35, the “CD28 scFv signal” value in assay [1] came out at 1.39. Further, in assay [2], the “CD28 scFv signal in presence of CD28” value turned out to be 0.14.

B36: Phage-394 (peptide)
peptide: MDWCPRYMWSDCFF
For B36, the “CD28 scFv signal” value in assay [1] came to 2.28. Moreover, the “CD28 scFv signal in presence of CD28” value in assay [2] came out at 0.377.

B37: Phage-374 (peptide)
peptide: MAWCPLDLWDKCFY
For the molecule B37, the “CD28 scFv signal” value in assay [1] was determined as 0.77. The “CD28 scFv signal in presence of CD28” value in assay [2] was determined as 0.141.

B38: Phage-396 (peptide)
peptide: TDWCPRDMWYLCFN
As for B38, the “CD28 scFv signal” value in assay [1] is 2.11. Also, the “CD28 scFv signal in presence of CD28” value in assay [2] amounted to 0.301.

B39: Phage-360 (peptide)
peptide: MDWCPMFLWHECFS
Take B39: the “CD28 scFv signal” value in assay [1] was 1.44. In addition, in assay [2], the “CD28 scFv signal in presence of CD28” value was found to be 0.193.

B40: Phage-365 (peptide)
peptide: MDWCPSYLWPVCFN
On to B40, for which, in assay [1], the “CD28 scFv signal” value was 1.18. In addition, the “CD28 scFv signal in presence of CD28” value in assay [2] amounted to 0.131.

B41: Phage-366 (peptide)
peptide: MHWCPLYLWDECFY
With B41, in assay [1], the “CD28 scFv signal” value was found to be 1.16. In addition, the “CD28 scFv signal in presence of CD28” value in assay [2] amounted to 0.376.

B42: Phage-403 (peptide)
peptide: MSWCPWDMWNECFA
In the case of B42, in assay [1], the “CD28 scFv signal” value amounted to 1.52. The “CD28 scFv signal in presence of CD28” value in assay [2] was 0.108.

B43: Phage-361 (peptide)
peptide: MHWCPRHLWSECFN
B43: in assay [1], the “CD28 scFv signal” value is 1.43. Besides, the “CD28 scFv signal in presence of CD28” value in assay [2] was found to be 0.478.

B44: Phage-399 (peptide)
peptide: MDWCPRSMWDSCFN
In the case of B44, in assay [1], the “CD28 scFv signal” value is 2.02. The “CD28 scFv signal in presence of CD28” value in assay [2] was determined as 0.142.

B45: Phage-350 (peptide)
peptide: MDWCPWFLWNECFN
B45: the “CD28 scFv signal” value in assay [1] was determined as 1.77. Moreover, the “CD28 scFv signal in presence of CD28” value in assay [2] was determined as 0.279.

B46: Phage-363 (peptide)
peptide: MNWCPMHLWAECFN
As to B46, the “CD28 scFv signal” value in assay [1] amounted to 1.39. Further, the “CD28 scFv signal in presence of CD28” value in assay [2] was 0.14.

B47: Phage-357 (peptide)
peptide: MDWCPRLLWHECFN
For B47, the “CD28 scFv signal” value in assay [1] came to 1.6. In addition, in assay [2], the “CD28 scFv signal in presence of CD28” value was found to be 0.109.

B48: Phage-369 (peptide)
peptide: MHWCPRDLWYECFA
Turning to B48, in assay [1], the “CD28 scFv signal” value came to 0.995. Also, in assay [2], the “CD28 scFv signal in presence of CD28” value turned out to be 0.108.

B49: Phage-405 (peptide)
peptide: MDWCPMSMWAFCFD
In the case of B49, the “CD28 scFv signal” value in assay [1] turned out to be 1.41. Also, the “CD28 scFv signal in presence of CD28” value in assay [2] was 0.16.

These data come from patent US20230357447A1 (JANUX THERAPEUTICS, published 2023).
